In a protein production outcome set (Wang et al. 2014):

Test: label from the status in PepcDB records

MAKPVYHAITKYSPKKPVIVFVPSRKQTRLTAIDILTTCAADIQRQRFLHCTEKDLIPYLEKLSDSTLKETLLNGVGYLHEGLSPMERRLVEQLFSSGAIQVVVASRSLCWGMNVAAHLVIIMDTQYYNGKIHAYVDYPIYDVLQMVGHANRPLQDDEGRCVIMCQGSKKDFFKKFLYEPLPVESHLDHCMHDHFNAEIVTKTIENKQDAVDYLTWTFLYRRMTQNPNYYNLQGISHRHLSDHLSELVEQTLSDLEQSKCISIEDEMDVAPLNLGMIAAYYYINYTTIELFSMSLNAKTKVRGLIEIISNAAEYENIPIRHHEDNLLRQLAQKVPHKLNNPKFNDPHVKTNLLLQAHLSRMQLSAELQSDTEEILSKAIRLIQACVDVLSSNGWLSPALAAMELAQMVTQAMWSKDSYLKQLPHFTSEHIKRCTDKGVESVFDIMEMEDEERNALLQLTDSQIADVARFCNRYPNIELSYEVVDKDSIRSGGPVVVLVQLEREEEVTGPVIAPLFPQKREEGWWVVIGDAKSNSLISIKRLTLQQKAKVKLDFVAPATGAHNYTLYFMSDAYMGCDQEYKFSVDVKEAETDSDSD
protein production: failed

MAKSLTFSTFSPNNTLKKNVIPIVLLHGWGLNSGVWQPLLELFHRNDESIYQLITIDLPGFGINSAVDIKPYSLANICHHIEQVIDQPAIYLGWSLGGLIATEMSLKYPEKVLASITVASSPYFVEQPTDNWPGIKENVLESFHKQLAQDTAKTISGFLKIQAMGSPHIRQDLKLITQLVMAHTLPSQQTLADSLALLSNSDLRLHLSKIKQPLLRLYGHNDSLVPKEVMEKISYLAPNSDQHLFADASHAPFISHLDDFYQVLVVWLDSHFNLEHHHHHH
protein production: failed

MAKSRLLLSELLDQLSFALCIVRNDYVIVKVNEYFESRVIFDGETMQGKNILELFPESADYLKRKIDTALVIESSSFSSWEQKPHLLPFKSSRPVSGEEEQMYQNLEVIPIHSED
protein production: failed

MAKTLFWLCLLLPFYAWVGYPLLLALLSLFVRPRPVQEGAPLSVSVIIAAHNEGPHIEHKLRTLLQQDYPATDLQIILASDGSSDDTVATALGVRDSRIVVLDLPRVGKAGALNAAVELARNDILVFTDADNQWSHDTLGKLLAPLSDPQVGACGGHMIIPDPGHNLSLGDSLYRHYEAWLRQAENRTGCMVSADGALLALRRELFQRIPAEVNDDFFISTCAPVAGKRIVYVEEAQVLDQGVDEAGKQYRRRLRVTVGGLQSLAQRRELMNPLRHGAYAIALISHKLIRRLAPVLLLPLLVSSLLLWNAGAFYSLALLAQVLGYGAGIMGLLDRRGRLPKVFRLAGFVLVTMAGMSMGLWQFLRGQRYALWNPQQNR
protein production: failed

MAKTSRPSKAKQQALVHQLIGKIDAQPEDYHAYYELVVLLTAGQDFEQAEALAMKALGKFDHQQPAADYLRYALGNVYYQAQTYDKALPYYQQITDDQLKQDAYLMSAQALMAQHDYQHALVWAITAQEARPQQLDANLLVADILLALGNNQQASDYYQRAYKIDSQSGRAAFNLGLTAMVLGKPYATWFERAQKLDSQYFKSHQQQLTDIEKMLAAQADNQNH
protein production: failed

MAKVTISSVIDAPVEKVWARIRDFNGLPCWHPRMVESHIEDGKNASTIGCVRNFELITGARLREKLLDFSDENFLVSYSILETPQPLTNHKATLQLRRVTDGDRTYAEWTASFDAAPEEADKIAAGMGANVFQGGFNALKSHFSGQD
protein production: failed

MAKWRLATATLRRQLQSSSPTISTFKNPTKALSAAAHQSTRSYSTTQTDDSRGKWLTLPPFSPTIDGTAVGKDLLSDGDSVKSSTDNSKTTALRWILRCRPDLPRTLVQKLFRLRQVRREMSMSVDGDELQRSQLKRVAAKESLNVGDRIYLPLSVDNDTPQTPPAKKESFQCSDEERKFVCSLVLYKDPAIIVLNKPHGLAVQGGSGIKTSIDELAASCLKFDKSESPRLVHRLDRDCSGLLVLARTQTAATVLHSIFREKTTGASAYGVKKNVKSLKRKYMALVIGCPPRQRGQISAPLRKVVVDDGKSERITVNDNGELVSTQHAITEYRVIESSPHGYTWLELRPLTGRKHQLRVHCAEVLGTPIVGDYKYGWQAHKAREPFVSSENNPTKQSSSPFGLDLDGGDVSSKQPHLHLHSKQIDLPNISQLLEKMQVSSDSDISDLDSLKFDAPLPSHMQLSFNLLKSRVETCDKN
protein production: failed

MAKYDVLTIGNAIVDIIARCDDSFLEENGIIKGAMNLINADRAELLYSRMGPAVEASGGSAGNTAAGVASLGGRAAYFGKVADDQLGEIFTHDIRAQGVHFQTKPLDGHPPTARSMIFVTEDGERSMNTYLGACVELGPEDVEDDVVAQSKVTYFEGYLWDPPRAKDAIREAARIAHAHGRETAMTLSDSFCVHRYRSEFLELMRSGTVDIVFANRQEALALYETEDFDRALELLARDCKLAAVTLSEEGSVVVRGAERVRVGASVLEQVVDTTGAGDLYAAGFLFGYTSGRSLEECSKLGNLAAGIVIGQIGPRPLVSLATAARQAALV
protein production: not failed

MAKYETPPPVRPLEKLITDFSYTNGLDPVNVFNDFLTYIIHGFSPGAPPLQNWKYKRLQNMKFMEMLTGWVQLMASRIKDDTSWYDPFGDLYMALVSKSAQQSQGQFFTPVHICDLMVLCTQTEEKMTGQRMGDPTCGSGRLLLAYHARNPENYLIGEDINRTCCLMTVCNMLIHGCVGEVICHDSLNPGNFVDGWKVNPMLTWTGIPTIKRMNMKEYRAGRNLPASPYIIRKTMLAGSRKHKTDSLLPLQAVFKMLEHHHHHH
protein production: not failed

MAKYVVTSAWPYVNHVPHLGTLIGSVLSADIYARYLRLRGRQVVFVSGSDEHGTPIELEARKKGVHPKELTDQVHEYDVKMWREYRISFDNYSRTESPVHKEFVMEFMKKLEENGYIFSQEEVLPYCERDKIFLPDRFVEGTCPYCGYEKARGDQCDECGRLLHPTELKNPRCALCGSKPVYKSTRHWFIDLRRVQDRLLKWLESHGELQDSVKKYSINWVAQGLKPRSVTRDLSWGVPAPFKGAEGKTIYVWFDALLGYVSATKELFIMRRGDPEEWKSWWWDSGTRTVYFIGKDNIPFHAIILPALFLASHDPYVLPWRISATEYLMYEGQQFSKSRRIGVWIDEALEIAPADYWRWALARMRPEARDTNFTWKEFYRIVNTELNDDIGNFVNRVLSLVRSRMSGVAPEPEDLGEHQGFVERVRRAAWAVAEDLEAIRIKRATEGILEIAREGNAYLNRTQPWKLLSQDREEGVRALSAALYAVKTLAHLLAPFTPDAADRLWSMLGLAGSVHEAVWDEWLDRPLPGGARIVRVEPLFQKLPDDFLERVDEIVEDARRRAREKRPPLLRD
protein production: failed

MALANFIDRAATAASQVLADFHLEDFKAALEKQVVAVAFDDQAASCAEGQATLDLAVRLLARLYPVLAILPLGSAASFQAQALERLAKSINPKVGIRRSGKSATICVVAGVTRPPLRCPTFFMGSDGWAAKLSRTDPVGSGSSLLPYGAGAASCFGAANVFRTIFAAQLTGAELDETIDLSLYSYDKTKAGEAGPIDIPVDLGETHLVGLGAIGHGSLWALARQPGLTGRLHVIDHEAIELSNLQRYVLAGQAEIGMSKAVLAATALRSTAIGVEAHPLTWAEYVARHGDWVFDRVGVALDTAADRLAVQGALPRWIANAWTQEHDLGISRHGFDDGQACLCCMYLPSGKSKDEHHLIAEELGIPEAHEQVKTLLQTNAGVPNDFVVRVATAMAVPFEPLAPFVGQPLRSFYQQAICGGLVFQLSDGSRRVRTVVPMAFQSALAGIMLAAELVKHSAGFPVGPTTSTRVNLLRPLGSRLHDPKAKDSSGRCICSDDDFIAAYRRKYGKSIVQLSDVSAA
protein production: failed

MALARWGAALQRRWQAIDPAERAGFVAGARFYVGSLPPVFAWGLVTGVAMSKSVLTIPQAIGMTLLVYAGSSQLAVLPLMAAGLPVWTVLLTAFIVNVRFIIFSAGLMQHFSHLPFGRRVLIGFFNGDLPFVLFSQRYPGPGPERGKEGYLWGMALANWTIWQVSSLLGIVGASLFPDAWGLALAGTLALIPVMVSTIRSRATLMAVAVAAVLALVAFKLPYRLSLVIAVVGAMAAGLAGDEATARLQWQRRGAQPAPSEPKEGP
protein production: failed

MALDQSLVGRSYPPTAPYEVGREKIREFAEAVGDANPAYTDAEAAKALGHPDVIAPPTFVFSITFKAAGQVIEDPQLGLDYSRVVHGDQKFSYARPVRAGDRLTVTSTIEAIKSMAGNDILDIRGEVHDEAGEHVVTAWTKLVARAAEEALEHHHHHH
protein production: not failed
